Test results: the supplement of paper PMC10724198
± gives the standard deviation of the averaged measurements.

Key:
Saccharomyces cerevisiae [1] = experiment: protein stability index of tFT-peptide fusion in deletion strain of DAS1 (PSI (0-1 scale)); higher = more stable (slower turnover)
Procedure: (§1)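 MPS profiling in S. cerevisiae of two library types built from selected 12-aa C-degron peptides (IN1, IN2, LN1, LN3, VN2, R1-R5, W1-W3, Atg1 and Rpa12 C-termini): saturation mutagenesis libraries and C-terminal +1 capping libraries (13 aa). Each peptide is fused to the C-terminus of a sfGFP-mCherry timer, after a GGGS linker. Cells are FACS-sorted into 8 mCherry/sfGFP bins and sequenced. PSI runs from 0 (unstable) to 1 (stable), measured once in wild type and in the das1Δ or doa10Δ background.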

Saccharomyces cerevisiae [2] = experiment: protein stability index of tFT-peptide fusion in wild type (PSI (0-1 scale)); higher = more stable (slower turnover); conditions: genetic background: wild type
Procedure: as §1

Saccharomyces cerevisiae [3] = experiment: protein stability index of tFT-peptide fusion (C-terminal peptide) (PSI (0-1 scale)); higher = more stable (slower turnover); conditions: temperature: 30 C
Procedure: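 MPS profiling in S. cerevisiae of the yeast C-terminome library: the last 12 aa of each annotated ORF are fused to the C-terminus of a sfGFP-mCherry timer, after a GGGS linker. Cells are FACS-sorted into 8 mCherry/sfGFP bins and deep-sequenced. PSI runs from 0 (unstable) to 1 (stable); wild type and das1Δ backgrounds, two technical replicates each.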

[4] = genetic background: das1 deletion
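For protein stability index of tFT-peptide fusion in deletion strain of DAS1 in this document: PSI is a weighted mean of each variant's read distribution over the sorted stability bins, computed only for variants having over 10 reads in total.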
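For protein stability index of tFT-peptide fusion in wild type in this document: PSI derived as read-weighted mean over the 8 sorting bins, only variants exceeding 10 total reads kept, mCherry placed adjacent to the peptide and sfGFP distal.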

| Sequence | protein stability index (Saccharomyces cerevisiae [1]) | protein stability index (Saccharomyces cerevisiae [2]) | protein stability index (Saccharomyces cerevisiae [3]; [4]) | protein stability index (Saccharomyces cerevisiae [3]; genetic background: wild type) |
| --- | --- | --- | --- | --- |
| AKHKKGQKQKIN | 0.829 | 0.11 | – | – |
| ARCRVGLWRGAS | 0.706 | 0.597 | – | – |
| ARQRVGLWRGAS | 0.694 | 0.6 | – | – |
| ARWEVGLWRGAS | 0.648 | 0.458 | – | – |
| ARWRCGLWRGAS | 0.695 | 0.574 | – | – |
| ARWRNGLWRGAS | 0.701 | 0.658 | – | – |
| ARWRVFLWRGAS | 0.674 | 0.432 | – | – |
| ARWRVGEWRGAS | 0.684 | 0.677 | – | – |
| ARWRVGHWRGAS | 0.703 | 0.582 | – | – |
| ARWRVGLDRGAS | 0.687 | 0.665 | – | – |
| ARWRVGLWCGAS | 0.561 | 0.567 | – | – |
| ARWRVGLWNGAS | 0.664 | 0.634 | – | – |
| ARWRVGLWRGAL | 0.682 | 0.596 | – | – |
| ARWRVGLWRGAN | 0.687 | 0.121 | – | – |
| ARWRVGLWRGAP | 0.681 | 0.662 | – | – |
| ARWRVGLWRGASA | 0.672 | 0.665 | – | – |
| ARWRVGLWRGASV | 0.676 | 0.675 | – | – |
| ARWRVGLWRGAT | 0.683 | 0.447 | – | – |
| ARWRVGLWRGES | 0.695 | 0.681 | – | – |
| ARWRVGLWRGGS | 0.684 | 0.672 | – | – |
| ARWRVGLWRGVS | 0.689 | 0.122 | – | – |
| ARWRVGLWRRAS | 0.673 | 0.093 | – | – |
| ARWRVGLWWGAS | 0.679 | 0.556 | – | – |

| Sequence | protein stability index (Saccharomyces cerevisiae [1]) | protein stability index (Saccharomyces cerevisiae [2]) | protein stability index (Saccharomyces cerevisiae [3]; [4]) | protein stability index (Saccharomyces cerevisiae [3]; genetic background: wild type) |
| --- | --- | --- | --- | --- |
| ARWRVHLWRGAS | 0.695 | 0.294 | – | – |
| ARWRVILWRGAS | 0.627 | 0.496 | – | – |
| ARWRYGLWRGAS | 0.678 | 0.489 | – | – |
| AWWRVGLWRGAS | 0.68 | 0.504 | – | – |
| AYWRVGLWRGAS | 0.699 | 0.449 | – | – |
| CFSCGYKFRTNN | 0.682 | 0.188 | – | – |
| CKILRQKMNHQN | 0.675 | 0.165 | – | – |
| CTFCGYKFRTNN | 0.719 | 0.253 | – | – |
| CTSCGYCFRTNN | 0.7 | 0.261 | – | – |
| CTSCGYFFRTNN | 0.695 | 0.222 | – | – |
| CTSCGYIFRTNN | 0.706 | 0.233 | – | – |
| CTSCGYKARTNN | 0.686 | 0.623 | – | – |
| CTSCGYKFRTAN | 0.673 | 0.27 | – | – |
| CTSCGYKFRTNC | 0.699 | 0.224 | – | – |
| CTSCGYKFRTNP | 0.701 | 0.689 | – | – |
| CTSCGYKFWTNN | 0.75 | 0.299 | – | – |
| CTSCGYPFRTNN | 0.723 | 0.677 | – | – |
| CTSCVYKFRTNN | 0.675 | 0.164 | – | – |
| CTSCWYKFRTNN | 0.672 | 0.168 | – | – |
| ESLAASFWRVVG | 0.689 | 0.136 | – | – |
| FKHKKGQKQKIN | 0.586 | 0.123 | – | – |
| FSMAWTFRYWVN | 0.456 | 0.0458 | – | – |
| FSMFWTFRYWVN | 0.403 | 0.0733 | – | – |

| Sequence | protein stability index (Saccharomyces cerevisiae [1]) | protein stability index (Saccharomyces cerevisiae [2]) | protein stability index (Saccharomyces cerevisiae [3]; [4]) | protein stability index (Saccharomyces cerevisiae [3]; genetic background: wild type) |
| --- | --- | --- | --- | --- |
| FSMRCTFRYWVN | 0.522 | 0.0458 | – | – |
| VLTAGVNSVAIK [RPN11 C-terminal 12 aa] | – | – | 0.6646 ± 0.0021 | 0.63 ± 0.0097 |
| VLVCFQTFILLQ [YDL032W C-terminal 12 aa] | – | – | 0.152 ± 0.012 | 0.162 ± 0.0082 |
| VMLFSSNHQALG [MAG2 C-terminal 12 aa] | – | – | 0.704 ± 0.014 | 0.693 ± 0.014 |
| VNFDIEEEQEGQ [JJJ3 C-terminal 12 aa] | – | – | 0.685 ± 0.011 | 0.791 ± 0.071 |
| VRKGQEKSKKHS [SEI1 C-terminal 12 aa] | – | – | 0.678 ± 0.01 | 0.737 ± 0.06 |
| VRVPKKSKKLKK [PDR10 C-terminal 12 aa] | – | – | 0.7169 ± 0.0069 | 0.705 ± 0.012 |
| VSKELRSRDLLD [RPE1 C-terminal 12 aa] | – | – | 0.68 ± 0.027 | 0.699 ± 0.0075 |
| VSNNLIIDEETF [BIM1 C-terminal 12 aa] | – | – | 0.7174 ± 0.0056 | 0.7214 ± 0.0042 |
| VSSLRKHGEHYS [TRM82 C-terminal 12 aa] | – | – | 0.704 ± 0.021 | 0.6079 ± 0.0053 |
| VTSIMDMPISRE [MVP1 C-terminal 12 aa] | – | – | 0.685 ± 0.019 | 0.684 ± 0.019 |
| VTSKSALESIFP [YGP1 C-terminal 12 aa] | – | – | 0.73 ± 0.0083 | 0.678 ± 0.031 |
| VVLSYSMVGSVM [MAY24 C-terminal 12 aa] | – | – | 0.4645 ± 0.0021 | 0.474 ± 0.026 |
| VVVCRLHFSLPV [YKL111C C-terminal 12 aa] | – | – | 0.562 ± 0.0059 | 0.57 ± 0.012 |
| VVYYHMVCKNIT [YHR125W C-terminal 12 aa] | – | – | 0.5662 ± 0.0017 | 0.573 ± 0.038 |
| VWNTFYKLGKRV [TMT1 C-terminal 12 aa] | – | – | 0.7048 ± 0.0066 | 0.6583 ± 0.0029 |
| VYDYQYIYKGKQ [SIA1 C-terminal 12 aa] | – | – | 0.701 ± 0.016 | 0.698 ± 0.016 |
| VYTSKTRYRFAV [YHR210C C-terminal 12 aa] | – | – | 0.7137 ± 0.0024 | 0.578 ± 0.012 |
| WEHLHSGFSKNK [ELG1 C-terminal 12 aa] | – | – | 0.723 ± 0.012 | 0.716 ± 0.019 |
| WKKFLKFSKGSD [HXT17 C-terminal 12 aa] | – | – | 0.696 ± 0.0084 | 0.703 ± 0.099 |
| WKQGGGDFRTKK [RBA50 C-terminal 12 aa] | – | – | 0.709 ± 0.022 | 0.667 ± 0.033 |
| WLDCTTLPNYQG [KAP122 C-terminal 12 aa] | – | – | 0.7222 ± 0.0061 | 0.707 ± 0.028 |
| WNLQTLAADDAF [RPB11 C-terminal 12 aa] | – | – | 0.765 ± 0.03 | 0.729 ± 0.049 |

| Sequence | protein stability index (Saccharomyces cerevisiae [1]) | protein stability index (Saccharomyces cerevisiae [2]) | protein stability index (Saccharomyces cerevisiae [3]; [4]) | protein stability index (Saccharomyces cerevisiae [3]; genetic background: wild type) |
| --- | --- | --- | --- | --- |
| WYNPSNQTYKSK [YLR222C-A C-terminal 12 aa] | – | – | 0.719 ± 0.038 | 0.727 ± 0.071 |
| YAVSELEGPMLD [CSC1 C-terminal 12 aa] | – | – | 0.7 ± 0.016 | 0.6479 ± 0.0011 |
| YCLFEKPTETTN [ALG9 C-terminal 12 aa] | – | – | 0.736 ± 0.029 | 0.695 ± 0.061 |
| YDYNSKNSRGFY [DEF1 C-terminal 12 aa] | – | – | 0.6999 ± 0.0051 | 0.676 ± 0.033 |
| YFKETLYKLANE [HIS5 C-terminal 12 aa] | – | – | 0.687 ± 0.023 | 0.705 ± 0.085 |
| YFLAERERINNH [PEX4 C-terminal 12 aa] | – | – | 0.721 ± 0.0079 | 0.694 ± 0.01 |
| YGCIALTVVFIL [YAR069C C-terminal 12 aa] | – | – | 0.232 ± 0.0061 | 0.223 ± 0.0052 |
| YISKAGSYEVRY [APM4 C-terminal 12 aa] | – | – | 0.68349 ± 0.00019 | 0.666 ± 0.03 |
| YKASGSYLEKYF [YPK3 C-terminal 12 aa] | – | – | 0.7123 ± 0.0023 | 0.6863 ± 0.00092 |
| YKKVQWAKVLEQ [SFG1 C-terminal 12 aa] | – | – | 0.709 ± 0.022 | 0.7255 ± 0.0061 |
| YKLFKFLTRERS [BNA4 C-terminal 12 aa] | – | – | 0.7081 ± 0.0051 | 0.657 ± 0.018 |
| YKNKVGVGIPFI [STE14 C-terminal 12 aa] | – | – | 0.728 ± 0.019 | 0.7065 ± 0.0057 |
| YKQVSSHNSHSQ [CUP2 C-terminal 12 aa] | – | – | 0.68 ± 0.034 | 0.691 ± 0.014 |
| YLEAFQWLSQYI [SAR1 C-terminal 12 aa] | – | – | 0.7969 ± 0.0076 | 0.7631 ± 0.0025 |
| YLLGIYRDNKKC [ALG5 C-terminal 12 aa] | – | – | 0.727 ± 0.0028 | 0.6693 ± 0.0016 |
| YNINHRKSVNSV [TDA9 C-terminal 12 aa] | – | – | 0.706 ± 0.0094 | 0.6634 ± 0.0026 |
| YNSELVATKDIQ [PNT1 C-terminal 12 aa] | – | – | 0.703 ± 0.012 | 0.7242 ± 0.0066 |
| YSELCIIVGTYY [YDR003W-A C-terminal 12 aa] | – | – | 0.431 ± 0.012 | 0.439 ± 0.036 |
| YSLYRSRSKEAF [SAP190 C-terminal 12 aa] | – | – | 0.714 ± 0.048 | 0.692 ± 0.0071 |
| YVRFYRGKLNNP [YOL036W C-terminal 12 aa] | – | – | 0.704 ± 0.022 | 0.7 ± 0.024 |
| YWALGVALTGSK [YDR417C C-terminal 12 aa] | – | – | 0.6933 ± 0.0046 | 0.693 ± 0.029 |
| YWRKQYPDADLP [YAR028W C-terminal 12 aa] | – | – | 0.714 ± 0.015 | 0.695 ± 0.033 |
| YYNLKNCITSET [YHR050W-A C-terminal 12 aa] | – | – | 0.661 ± 0.007 | 0.6465 ± 0.0017 |
